Experimental data published in the supplement of paper PMC10126150.
± gives the standard deviation of the averaged measurements.

Tested on: ATP
Test: switch fluorescence ratio, 500 uM ATP over buffer (Cy3 cluster intensity, sum of 5 cycles each) (fold (ratio)); higher = stronger signal-on switching upon ATP binding; sequences stand for … in TCGTCGGCAGCGTCAGATGTGTATAAGAGACAGTTTTTTTTTTTTTTTTTTTTTTTTT…TC
Details: aptamer strand: ATP DNA aptamer (quencher-CACCTGGGGGAGTATTGCGGAGGAAGG + anchor), 100 nM annealed; ATP concentration: 500 uM
How it was run: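 Cy3-labelled switching-strand clusters on a modified Illumina MiSeq flow-cell were annealed to 100 nM quencher-labelled ATP aptamer and imaged first in selection buffer, then after 15 min with 500 uM ATP at 22 °C. NaOH stripping and re-annealing separated each of five buffer/ATP cycles, and clusters outside 100-1000 RFU were excluded. The fluorescence ratio sums target-cycle Cy3 intensity over buffer-cycle Cy3 intensity per cluster and averages it per switch-domain sequence.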
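Note: ATP exposure 15 min at 22 °C before imaging.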

Sequence	switch fluorescence ratio
TCCTTTGGTT	0.9865 ± 0.0034
TCCTTTTTTA	1.01 ± 0.015
TCGAAAAAGG	1.0045 ± 8.5e-06
TCGAAAAATT	0.975 ± 0.048
TCGAAAATAT	1.5 ± 1
TCGAAAGTTA	1.04 ± 0.022
TCGAAGATGT	0.996 ± 0.019
TCGAAGGAAT	1.24 ± 0.037
TCGAAGGGCT	1.016 ± 0.01
TCGAAGGGGA	0.971 ± 0.035
TCGAATAATT	1 ± 0.041
TCGAATAGAT	0.958 ± 0.04
TCGAATATTT	1.02 ± 0.073
TCGACGGGGA	1.1 ± 0.047
TCGAGATGG	0.97289 ± 7.7e-05
TCGAGATTAT	1.01 ± 0.027
TCGAGCCTTT	0.9909 ± 0.0014
TCGAGGGGAA	1.13 ± 0.15
TCGAGGGGTT	0.993 ± 0.011
TCGAGGTTGC	0.993 ± 0.025
TCGAGTTCAG	0.99 ± 0.021
TCGATAATTA	0.97 ± 0.09
TCGATACATG	0.993 ± 0.034
TCGATAGTTG	0.961 ± 0.054
TCGATATATG	1 ± 0.028
TCGATATTTA	0.982 ± 0.02

Sequence	switch fluorescence ratio
TCGATCGCAT	2.51 ± 2.2
TCGATCGCTA	1.43 ± 0.59
TCGATCTGTG	0.99652 ± 0.00045
TCGATGTTGT	0.987 ± 0.03
TCGATTTTGG	1 ± 0.029
TCGCAGGGGG	0.992 ± 0.043
TCGCCATGAT	0.999 ± 0.02
TCGCCCGAGC	1.09 ± 0.11
TCGCCGTTCT	0.99 ± 0.033
TCGCGAGAGC	1.004 ± 0.0057
TCGCGCCCTG	1.03 ± 0.043
TCGCGGTTCT	1.11 ± 0.085
TCGCGTCTCA	1.01 ± 0.046
TCGCTATTTA	1.033 ± 0.0085
TCGCTGAAGC	1.02 ± 0.013
TCGCTTAATT	1.02 ± 0.032
TCGCTTCTCT	1.76 ± 1
TCGCTTTACT	3.87 ± 0.81
TCGGAAGACA	1.01 ± 0.0069
TCGGAAGGCT	0.999 ± 0.089
TCGGAAGGG	0.988 ± 0.037
TCGGAATATT	1.09 ± 0.062
TCGGAATTGT	0.9992 ± 0.0056
TCGGACGACC	1.15 ± 0.12
TCGGACTCGG	0.963 ± 0.017
TCGGACTGGG	1.01 ± 0.022

Sequence	switch fluorescence ratio
TCGGAGAGGG	0.974 ± 0.037
TCGGAGGAAG	1.02 ± 0.012
TCGGAGGCCT	1.04 ± 0.04
TCGGAGGTGT	1.01 ± 0.027
TCGGAGTAG	1.04 ± 0.031
TCGGATAGCT	1.02 ± 0.014
TCGGATAGTC	1.01 ± 0.026
TCGGATCCAA	1.048 ± 0.0022
TCGGATTGGA	0.981 ± 0.028
TCGGCACCAA	1.05 ± 0.046
TCGGCAGTGG	1.03 ± 0.027
TCGGCCATCG	1 ± 0.016
TCGGCGTATC	0.979 ± 0.01
TCGGCGTTCA	1.02 ± 0.02
TCGGCTCTTG	1.013 ± 0.0046
TCGGCTTGGC	1.03 ± 0.086
TCGGCTTGGG	0.987 ± 0.02
TCGGCTTTGG	0.9639 ± 0.0093
TCGGGAAGGT	1 ± 0.023
TCGGGAGTAT	1.04 ± 0.03
TCGGGATAGC	1.08 ± 0.052
TCGGGATGTT	0.989 ± 0.027
TCGGGCTGGG	1.03 ± 0.0069
TCGGGCTGTG	1.02 ± 0.05
TCGGGGACCG	0.952 ± 0.052
TCGGGGATGA	1.067 ± 0.0092

Sequence	switch fluorescence ratio
TCGGGGCGCG	0.975 ± 0.061
TCGGGGCGG	0.992 ± 0.011
TCGGGGCGGC	1.02 ± 0.046
TCGGGGCGGG	1.01 ± 0.056
TCGGGGGCGA	1.13 ± 0.17
TCGGGGGCGT	1.03 ± 0.038
TCGGGGGGG	1.01 ± 0.016
TCGGGGGGGC	1.01 ± 0.072
TCGGGGGGTC	0.981 ± 0.043
TCGGGGGTG	1.01 ± 0.085
TCGGGGGTGG	0.988 ± 0.014
TCGGGGTTTA	0.994 ± 0.059
TCGGGGTTTC	1.05 ± 0.019
TCGGGTAAAC	1.03 ± 0.042
TCGGGTAAGT	1.01 ± 0.077
TCGGGTACTG	0.979 ± 0.093
TCGGGTATGG	1.01 ± 0.042
TCGGGTCATG	1.04 ± 0.04
TCGGGTCCGC	1.06 ± 0.046
TCGGGTCGCG	0.9948 ± 0.00097
TCGGGTGAAC	0.983 ± 0.041
TCGGGTGGGA	1.05 ± 0.058
TCGGGTGGTG	0.92 ± 0.16
TCGGGTTGGT	1.02 ± 0.061
TCGGGTTTAT	1 ± 0.037
TCGGTAGCGA	1.14 ± 0.17

Sequence	switch fluorescence ratio
TCGGTCAAGG	0.949 ± 0.02
TCGGTCCTGC	1 ± 0.024
TCGGTCGCGG	0.974 ± 0.028
TCGGTCGTGC	1.03 ± 0.034
TCGGTGATGG	0.988 ± 0.021
TCGGTGTCTA	0.985 ± 0.02
TCGGTGTGCA	0.985 ± 0.024
TCGGTTAATA	1.018 ± 0.0054
TCGGTTACAT	0.983 ± 0.016
TCGGTTCATT	0.9962 ± 0.004
TCGGTTGTGT	1.08 ± 0.078
TCGGTTGTTG	1.01 ± 0.013
TCGGTTTAAC	1.04 ± 0.038
TCGGTTTGCA	0.997 ± 0.018
TCGGTTTGCG	1.01 ± 0.022
TCGTAACTTA	1.03 ± 0.011
TCGTAATGAG	1.019 ± 0.0034
TCGTAATTGT	1.02 ± 0.024
TCGTACATGA	1.013 ± 0.00015
TCGTACGAAG	1 ± 0.032
TCGTAGAAGG	0.991 ± 0.048
TCGTAGAGTG	0.954 ± 0.026
TCGTAGGGG	0.961 ± 0.018
TCGTATACGG	0.963 ± 0.044
TCGTATTAAG	0.969 ± 0.046
TCGTATTACG	1.03 ± 0.094

Sequence	switch fluorescence ratio
TCGTCAAATT	0.991 ± 0.067
TCGTCAACGG	1.01 ± 0.023
TCGTCCGAAG	1.45 ± 0.04
TCGTCTAAGG	0.995 ± 0.014
TCGTCTAATG	0.9784 ± 0.0016
TCGTGAGGGG	1.02 ± 0.047
TCGTGATTGG	1.007 ± 0.0097
TCGTGCGGTT	1.01 ± 0.032
TCGTGGGCGA	0.993 ± 0.011
TCGTGTATAT	1 ± 0.027
TCGTGTATCT	0.946 ± 0.039
TCGTGTATGA	1.036 ± 0.0059
TCGTGTGACT	0.98961 ± 8.7e-05
TCGTGTGATG	0.9686 ± 0.0049
TCGTGTTCGA	1.001 ± 0.0094
TCGTTAATCA	0.9835 ± 0.0088
TCGTTAGATG	0.989 ± 0.023
TCGTTAGGTG	1.03 ± 0.025
TCGTTATGT	0.97732 ± 9.1e-05
TCGTTATGTC	1 ± 0.032
TCGTTCAATC	1.314 ± 0.01
TCGTTGGGGG	0.995 ± 0.013
TCGTTGTTAT	1 ± 0.023
